Data as given in paper PMC6234505.

Target: GST-SHP2 PTP DAQA (substrate trapping mutant D425A/Q506A)
Test: pull-down

fold more pulled down than by GST-SHP2 WT: 14 fold
Substance: YFP-GluN2B, tyrosine phosphorylated, in cell lysate (from UniProt Q00960 27-1482) (receptor)
